Assay results from article doi:10.1101/2021.05.25.445681 (bioRxiv, 2021).

Target: the molecule itself
Experiment: cryo-EM structure

B1: E. coli MsbA (natural protein)
chain: MHNDKDLSTWQTFRRLWPTIAPFKAGLIVAGVALILNAASDTFMLSLLKPLLDDGFGKTDRSVLVWMPLVVIGLMILRGITSYVSSYCISWVSGKVVMTMRRRLFGHMMGMPVSFFDKQSTGTLLSRITYDSEQVASSSSGALITVVREGASIIGLFIMMFYYSWQLSIILIVLAPIVSIAIRVVSKRFRNISKNMQNTMGQVTTSAEQMLKGHKEVLIFGGQEVETKRFDKVSNRMRLQGMKMVSASSISDPIIQLIASLALAFVLYAASFPSVMDSLTAGTITVVFSSMIALMRPLKSLTNVNAQFQRGMAACQTLFTILDSEQEKDEGKRVIERATGDVEFRNVTFTYPGRDVPALRNINLKIPAGKTVALVGRSGSGKSTIASLITRFYDIDEGEILMDGHDLREYTLASLRNQVALVSQNVHLFNDTVANNIAYARTEQYSREQIEEAARMAYAMDFINKMDNGLDTVIGENGVLLSGGQRQRIAIARALLRDSPILILDEATSALDTESERAIQAALDELQKNRTSLVIAHRLSTIEKADEIVVVEDGVIVERGTHNDLLEHRGVYAQLHKMQFGQ
  binding result: binds
